Reference: paper PMC10841842, “Single-molecule quantitation of RNA-binding protein occupancy and stoichiometry defines a role for Yra1 (Aly/REF) in nuclear mRNP organization” (Cell reports, 2023)

B1: Hpr1-mNG (natural protein, S. cerevisiae, UniProt P17629 1-752, looked up)
chain: MSNTEELIQNSIGFLQKTFKALPVSFDSIRHEPLPSSMLHASVLNFEWEPLEKNISAIHDRDSLIDIILKRFIIDSMTNAIEDEEENNLEKGLLNSCIGLDFVYNSRFNRSNPASWGNTFFELFSTIIDLLNSPSTFLKFWPYAESRIEWFKMNTSVEPVSLGESNLISYKQPLYEKLRHWNDILAKLENNDILNTVKHYNMKYKLENFLSELLPINEESNFNRSASISALQESDNEWNRSARERESNRSSDVIFAADYNFVFYHLIICPIEFAFSDLEYKNDVDRSLSPLLDAILEIEENFYSKIKMNNRTRYSLEEALNTEYYANYDVMTPKLPVYMKHSNAMKMDRNEFWANLQNIKESDDYTLRPTIMDISLSNTTCLYKQLTQEDDDYYRKQFILQLCFTTNLIRNLISSDETRNFYKSCYLRENPLSDIDFENLDEVNKKRGLNLCSYICDNRVLKFYKIKDPDFYRVIRKLMSSDEKFTTAKIDGFKEFQNFRISKEKIPPPAFDETFKKFTFIKMGNKLINNVWKIPTGLDKIEQEVKKPEGVYEAAQAKWESKISSETSGGEAKDEIIRQWQTLRFLRSRYLFDFDKVNEKTGVDGLFEEPRKVEALDDSFKEKLLYKINQEHRKKLQDAREYKIGKERKKRALEEEASFPEREQKIKSQRINSASQTEGDELKSEQTQPKGEISEENTKIKSSEVSSQDPDSGVAGEFAPQNTTAQLENPKTEDNNAATSNISNGSSTQDMK
notes: Hpr1, THO complex component, S. cerevisiae; End of the tag read from the name; also called THO complex component Hpr1; source: S. cerevisiae BY4741/2-derived tagged strain, in cryo-ground cell lysate; not shown: mNeonGreen (mNG), C-terminal, kept
B2: Mft1, mNG-tagged (natural protein, S. cerevisiae, UniProt P33441 1-392, looked up)
chain: MPLSQKQIDQVRTKVHYSEVDTPFNKYLDILGKVTKLTGSIINGTLSNDDSKIEKLTEQNISQLKESAHLRFLDLQSSIDTKKVADENWETCQQETLAKLENLKDKLPDIKSIHSKLLLRIGKLQGLYDSVQVINREVEGLSEGRTSLVVTRAEWEKELGTDLVKFLIEKNYLKLVDPGLKKDSSEERYRIYDDFSKGPKELESINASMKSDIENVRQEVSSYKEKWLRDAEIFGKITSIFKEELLKRDGLLNEAEGDNIDEDYESDEDEERKERFKRQRSMVEVNTIENVDEKEESDHEYDDQEDEENEEEDDMEVDVEDIKEDNEVDGESSQQEDNSRQGNNEETDKETGVIEEPDAVNDAEEADSDHSSRKLGGTTSDFSASSSVEEVK
notes: Mft1, THO complex subunit, S. cerevisiae; also called THO complex subunit Mft1; source: S. cerevisiae BY4741/2-derived tagged strain, in cryo-ground cell lysate

Target: the molecule itself
Experiment: pull-down; mRNP-SiMPull: lysate of cryo-ground yeast cross-linked with 0.2% formaldehyde, PrA-tagged bait pulled down on rabbit IgG Dynabeads at 8°C for 10 min (mTBT16 buffer: 20 mM HEPES-KOH pH 7.4, 12.5 mM KOAc, 2 mM MgCl2, 0.5% Triton X-100, 0.1% Tween 20), eluted by HRV3C protease, captured on a slide by mNG, HA or Yra1 antibody, TIRF imaging; spot counts and photobleaching steps, no-PrA control subtracted …

Protein | stoichiometry N
B1 | 2
B2 | 2
